Results taken from paper PMC9962951, “Olive Polyphenol Oxidase Gene Family” (International Journal of Molecular Sciences, 2023).

What was measured:
purified protein [1] = substrate: NCCc1ccc(O)cc1; test: purified protein; type: biochemical, Olea europaea; conditions: monophenolase, pH 6.8, 25 °C, substrate range 0.2–7 mM
purified protein [2] = substrate: CC(C)(C)c1ccc(O)c(O)c1; test: purified protein; type: biochemical, Olea europaea; conditions: diphenolase, 50 mM sodium phosphate pH 6.8, 1 mM SDS, 25 °C, substrate range 0.2–7 mM

B1: OePPO3 (Olea europaea subsp. europaea) (protein)
chain: APISAPDVTTCGPADLPQGAAPTNCCPPPTGEILDFKFPPPPTTMRVRPAAHLADEAYIAKFNRAVELMRALPDDDPRSFRQQANVHCAYCDGAYDQVGFPNLELQVHNSWLFFPFHRYYLYFFERILGNLIDDPTFAMPFWNYDAPGGMHLPAIYANQNSSLYDPLRDSAHQPPAFIDLNFSGSDANTGEAQQTSRNLTIMYRQMVSNSKTPRLFFGSPYRRGEDPNPGSGSIENIPHGPVHVWTGDRTQPNFENMGNFYSAGRDPIFFAHHSNIDRMWTLWKTLGGRRQDITDPDFLDASFVFYDENAKMVRVKVRDCLDHTKLGYVYQDVEVPWLRSRPKPRISSVVRKLKKLVRANAADIPSPKDIFPAKLDQVIKVMVKRPKKKRSKKEKDELEEILIIQGIELERDVYAKFDVFINDEDDEESTPENTEFAGSFVNVPHKHKNDKKIKTNLRLSITDILEDLDAEDDQHVLVTLVPKNFGDAITVHGIKIELDD
notes: GST tag cut off with PreScission (pGEX6P.1); E. coli BL21(DE3); about 54 kDa
Km (purified protein [1]): 700 µM | Vmax (purified protein [1]): 2.7 µmol/min/mg | Km (purified protein [2]): 800 µM | Vmax (purified protein [2]): 130 µmol/min/mg
